US20070224174A1

Molecular target: murine Axl receptor tyrosine kinase on precursor natural killer (pNK) cells (mouse) (UniProt Q00993)
Assay: cell-based or functional assay

Sequence of UniProt Q00993 (Q00993 19-888): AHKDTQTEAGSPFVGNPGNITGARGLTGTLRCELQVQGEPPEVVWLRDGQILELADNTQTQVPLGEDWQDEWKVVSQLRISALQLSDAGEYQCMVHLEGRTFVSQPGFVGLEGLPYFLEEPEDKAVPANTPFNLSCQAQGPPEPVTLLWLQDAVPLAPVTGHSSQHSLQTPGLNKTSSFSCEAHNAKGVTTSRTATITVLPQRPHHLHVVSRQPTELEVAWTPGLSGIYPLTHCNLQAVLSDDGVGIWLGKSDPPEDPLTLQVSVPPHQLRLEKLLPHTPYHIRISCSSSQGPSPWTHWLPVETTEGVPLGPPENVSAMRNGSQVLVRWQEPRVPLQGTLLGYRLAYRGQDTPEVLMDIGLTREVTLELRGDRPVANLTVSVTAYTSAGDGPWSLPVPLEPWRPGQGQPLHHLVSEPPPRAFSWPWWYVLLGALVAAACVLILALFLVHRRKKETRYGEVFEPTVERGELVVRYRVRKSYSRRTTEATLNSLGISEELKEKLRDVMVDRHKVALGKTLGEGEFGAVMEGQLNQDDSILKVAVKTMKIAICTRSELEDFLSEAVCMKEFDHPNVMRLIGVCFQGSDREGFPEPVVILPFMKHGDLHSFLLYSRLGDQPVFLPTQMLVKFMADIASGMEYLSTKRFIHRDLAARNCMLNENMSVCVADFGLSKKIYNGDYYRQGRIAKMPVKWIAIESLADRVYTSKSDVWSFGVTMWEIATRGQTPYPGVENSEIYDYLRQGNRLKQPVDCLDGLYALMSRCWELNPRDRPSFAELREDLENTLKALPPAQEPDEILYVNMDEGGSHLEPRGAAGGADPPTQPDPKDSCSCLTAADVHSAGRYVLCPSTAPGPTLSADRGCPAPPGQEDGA

murine Gas6 protein secreted from the murine Gas6 transfectant (NIH3T3 transfected with pcDNA3.1-Gas6) (from UniProt Q61592 28-674) (ligand)
degree of differentiation of pNK cells into mNK cells (FACS), co-culture with murine Gas6 transfectant against control groups: 47%
